Measured values from the Human Domainome abundance scans (Beltran et al. 2025).

B1: Zinc finger MYM-type protein 6, residues 427 to 504; numbered along this chain, O95789 (parent)
chain: KLKCQHCNHLFATKPELLFYKGKMFLFCGKNCSDEYKKKNKVVAMCDYCKLQKIIKETVRFSGVDKPFCSEVCKFLSA
B2: Dynamin-binding protein, residues 242 to 304; numbered along this chain, Q6XZF7 (parent)
chain: EEPGTYGVALYRFQALEPNELDFEVGDKIRILATLEDGWLEGSLKGRTGIFPYRFVKLCPDTR

Variants of: B1
Experiment: abundance fitness (aPCA) (normalised: wild type 0, dead -1); higher = more abundant; growth selection in yeast, the domain comes from the species named
Conditions: Homo sapiens

Abundance fitness of substitutions, site by site:
K3: I -0.124 | R -0.075 | S 0.021 | F -0.116 | N -0.011 | T -0.102 | M -0.192 | C -0.163 | P -0.071 | G -0.078 | D -0.186 | V -0.138 | E 0.001 | W -0.243 | L -0.073 | Y -0.132 | H -0.156 | Q -0.032
T13: D -0.146 | P -0.128 | Y -0.029 | E -0.06 | N -0.128 | A -0.074 | H -0.039 | Q -0.093 | G -0.024 | R -0.087 | L -0.176 | S -0.148 | V -0.098 | I 0.031 | W -0.162 | C -0.201 | K -0.056
L18: K -0.059 | R -0.077 | W -0.019 | I -0.159 | Q -0.042 | C -0.113 | G -0.033 | P -0.307 | V -0.02 | T -0.081 | A -0.031
F19: M -0.196 | D 0.126 | A 0.057 | T -0.03 | K 0.182 | W -0.005 | I -0.152 | E 0.129 | P 0.101 | Q 0.081 | R 0.103 | S 0.033 | G -0.053
F11: C -0.098 | K -0.13 | I -0.25 | S -0.094 | M -0.134 | W -0.207 | V 0.031 | P -0.049 | R -0.198 | H -0.354 | D -0.339 | G -0.171 | T 0.014 | L -0.129
L17: Y -0.081 | F -0.168 | M 0.061 | N 0.19 | T 0.086 | P 0.024 | Q 0.156 | G -0.042 | C -0.011 | E 0.166 | A -0.003 | W 0.065 | K 0.102 | S 0.117 | D -0.044
E16: G -0.279 | R -0.102 | T -0.037 | K 0.002 | Y -0.194 | Q -0.03 | M -0.14 | V -0.109 | H -0.307 | W -0.13 | D -0.169 | N -0.26 | S -0.146 | L -0.139 | A -0.091 | P -0.414 | C -0.102
K1: E -0.104 | M -0.252 | G -0.229 | D -0.008 | V -0.355 | L -0.271 | A -0.276 | H -0.209 | W -0.536 | F -0.697 | S -0.131 | C -0.147 | Q -0.194
H6: V -0.074 | S -0.085 | R -0.03 | I -0.154 | F -0.14 | E 0.008 | K -0.46 | L -0.104 | A -0.043 | T -0.079 | Q -0.098 | P -0.993 | W -0.102 | C -0.046 | G -0.04 | D -0.1 | M 0.033
K21: C -0.036 | G 0.019 | R -0.025 | E 0.008 | H -0.018 | F -0.03 | A 0.001 | M -0.031 | Q -0.03 | D -0.004 | N -0.03 | L -0.007
H9: R 0.037 | M 0.022 | S -0.032 | G 0.014 | K 0.034 | E -0.028 | Y 0.015 | F -0.153 | W -0.069 | T 0.042 | V 0.032 | N -0.011 | P -0.69 | A 0.005 | Q 0.049 | C -0.085
Y20: N -0.059 | I 0.031 | L 0 | C -0.023 | H -0.079 | Q -0.01 | F 0.054 | T 0.019 | K -0.123 | G -0.078 | R -0.121 | D -0.033 | M -0.062 | A 0.031
N8: R -0.02 | E 0.018 | Y -0.264 | A 0.013 | Q 0.044 | F -0.172 | T -0.067 | I -0.168 | H -0.117 | K 0.01 | L -0.015 | W -0.154 | C -0.015 | V -0.088 | M -0.009 | S 0.042 | P -0.129
L2: T 0.125 | Q 0.099 | A 0.096 | S 0.031 | C -0.089 | F 0.018 | W -0.119 | M 0.048 | H -0.131 | P -0.068 | I -0.06 | V 0.01 | D 0.069 | E 0.109 | G 0.082 | R 0.014
K14: R -0.104 | T -0.032 | C -0.243 | S -0.085 | W -0.408 | D -0.081 | Y -0.492 | L -0.101 | E -0.053 | F -0.298 | N -0.1 | Q -0.126 | P -0.182 | M -0.287 | V -0.141
Q5: K -0.194 | A -0.023 | W -0.206 | P -0.204 | D -0.405 | T -0.113 | V -0.077 | E -0.33 | Y -0.057 | L -0.118 | R -0.226 | I -0.156 | G -0.041 | S -0.248
L10: F 0.107 | I -0.135 | A 0.051 | S -0.066 | R 0.063 | Y -0.026 | C -0.05 | Q 0.023 | V -0.002 | P 0.034 | G 0.049 | W 0.004 | D -0.002 | T -0.085 | E 0.063 | K 0.017
A12: F -0.181 | W -0.134 | N -0.218 | S -0.072 | T -0.056 | M -0.105 | C -0.096 | H -0.132 | K 0.008 | D -0.047 | V -0.223 | P -0.131 | Y -0.205 | I 0.062
P15: H -0.213 | W -0.534 | Q -0.126 | K -0.038 | E -0.083 | A -0.075 | Y -0.651 | V -0.37 | F -0.478 | T -0.132 | G -0.163 | R -0.119 | D -0.03 | I -0.412 | L -0.483 | M -0.335 | S -0.119
C4: H -0.649 | W -1.11 | V -0.758 | M -1.05 | R -0.877 | E -0.81 | D -0.879 | A -0.74 | P -0.681 | S -0.702 | G -0.772 | K -0.687 | L -0.698
C7: S -0.823 | G -0.442 | L -0.951 | K -0.451 | V -1.11 | P -1.07 | E -0.722 | M -0.76 | Q -0.887 | W -0.919 | I -1.02 | T -0.792 | N -0.23 | F -0.845 | H -0.575

Variants of: B2
Experiment: as above
Conditions: Homo sapiens

Abundance fitness: each site, then its substitutions
T62: W -0.37 | Y -0.127 | V -0.04
R63: A 0.087 | G 0.119 | M 0.049 | N 0.168 | P 0.164 | S 0.15 | D 0.125 | L -0.005 | F -0.216 | I -0.012 | H 0.065 | T 0.186 | Q -0.184 | W -0.206 | E -0.455 | C -0.06 | V -0.056
